According to patent US20190016826A1 (Genentech, published 2019):

Legend:
[1] = target: Full length human HtrA1 (HuHtrA1) (Q23-P480), N-terminal His6 tag (human, UniProt Q92743 23-480); assay: cell-based or functional assay
K191A = target: T1, K191A; assay: ELISA on plate-coated HuHtrA1_PD mutants (Example 7); column head on the sheet reads YW505.94 Fab, legend paragraph 70 says IgG94
T1 construct: also called HuHtrA1_PD(K191A)
Experimental: (§1) The mutants were expressed in E. coli and the trimers purified by size exclusion chromatography as described in Example 2. Binding was determined using an ELISA assay, which was conducted using a MAXISORP™ microtiter plate coated with HuHtrA1_PD mutants at 2 μg/ml in PBS for 1 h, followed by blocking with PBST buffer (0.5% BSA and 0.05% Tween 20 in PBS) for 1 h at room temperature. […] The plates were washed with PBT buffer (0.05% Tween 20 in PBS), and HRP-conjugated goat anti-human IgG (H+L) (Invitrogen) was added (1:5000 in PBST buffer) and incubated for 1 h. The plates were washed with PBT buffer and developed by adding tetramethylbenzidine substrate (Kirkegaard and Perry Laboratories, Gaithersburg, Md.). The absorbance at 450 nm was plotted as a function of antibody concentration in solution to determine EC₅₀ values.
(§2) In trypsin-like serine proteases these loops are known to be part of the specificity determining region that interacts with substrates.

N224A = target: T2, N224A; assay: as above
T2 construct: also called HuHtrA1_PD(N224A)
Experimental: as §1, §2

R227A = target: T3, R227A; assay: as above
T3 construct: also called HuHtrA1_PD(R227A)
Experimental: as §1, §2

E239A = target: T4, E239A; assay: as above
T4 construct: also called HuHtrA1_PD(E239A)
Experimental: as §1, §2

K248A = target: T5, K248A; assay: as above
T5 construct: also called HuHtrA1_PD(K248A)
Experimental: as §1, §2

Y325A = target: T6, Y325A; assay: as above
T6 construct: also called HuHtrA1_PD(Y325A)
Experimental: as §1, §2

[2] = target: T7, HuHtrA1_PD(S328A), catalytically inactive protease domain of human HtrA1 (human, UniProt F1N152 168-386 (bovine entry)); assay: as above
T7 construct: Trimer; not shown: thrombin cleavage site
T7 chain: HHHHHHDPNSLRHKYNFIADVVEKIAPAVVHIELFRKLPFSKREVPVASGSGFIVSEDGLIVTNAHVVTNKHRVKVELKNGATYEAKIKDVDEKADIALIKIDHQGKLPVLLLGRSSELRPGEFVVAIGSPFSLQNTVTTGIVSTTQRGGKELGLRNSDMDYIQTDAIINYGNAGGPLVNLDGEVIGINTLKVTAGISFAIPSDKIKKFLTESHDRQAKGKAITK
Experimental: as §1, §2

HuHtrA1_PD(V201A) = target: T8, HuHtrA1_PD(V201A) (human, UniProt F1N152 168-386 (bovine entry)); assay: as above
T8 construct: Alanine mutant of HuHtrA1_PD; also called HuHtrA1 mutant V201A; not shown: thrombin cleavage site
T8 chain: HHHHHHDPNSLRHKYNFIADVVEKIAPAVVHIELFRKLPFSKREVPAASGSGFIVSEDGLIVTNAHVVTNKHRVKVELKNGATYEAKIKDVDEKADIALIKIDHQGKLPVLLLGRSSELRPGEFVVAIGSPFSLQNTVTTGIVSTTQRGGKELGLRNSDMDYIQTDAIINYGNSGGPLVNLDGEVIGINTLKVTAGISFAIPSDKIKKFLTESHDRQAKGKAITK
Experimental: as §1, §2

HuHtrA1_PD(H220A) = target: T9, HuHtrA1_PD(H220A) (human, UniProt F1N152 168-386 (bovine entry)); assay: as above
T9 construct: Alanine mutant of HuHtrA1_PD; also called HuHtrA1 mutant H220A; not shown: thrombin cleavage site
T9 chain: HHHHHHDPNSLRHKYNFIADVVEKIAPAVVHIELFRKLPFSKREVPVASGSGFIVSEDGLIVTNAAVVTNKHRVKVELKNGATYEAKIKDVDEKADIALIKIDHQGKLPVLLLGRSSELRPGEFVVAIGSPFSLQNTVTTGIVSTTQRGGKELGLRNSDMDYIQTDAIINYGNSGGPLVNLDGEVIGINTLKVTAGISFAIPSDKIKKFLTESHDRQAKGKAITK
Experimental: as §1, §2

HuHtrA1_PD(K225A) = target: T10, HuHtrA1_PD(K225A) (human, UniProt F1N152 168-386 (bovine entry)); assay: as above
T10 construct: Alanine mutant of HuHtrA1_PD; also called HuHtrA1 mutant K225A; not shown: thrombin cleavage site
T10 chain: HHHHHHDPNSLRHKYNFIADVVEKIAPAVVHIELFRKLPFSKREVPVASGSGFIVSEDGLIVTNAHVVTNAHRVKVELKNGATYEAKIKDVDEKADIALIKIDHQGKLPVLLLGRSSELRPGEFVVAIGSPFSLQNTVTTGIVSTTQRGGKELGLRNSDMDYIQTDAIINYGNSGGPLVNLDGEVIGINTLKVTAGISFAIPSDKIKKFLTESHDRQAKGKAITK
Experimental: as §1, §2

Chain of Full length human HtrA1 (HuHtrA1) (Q23-P480), N-terminal His6 tag (Q92743 other isoform, or with tags, fused parts or gaps): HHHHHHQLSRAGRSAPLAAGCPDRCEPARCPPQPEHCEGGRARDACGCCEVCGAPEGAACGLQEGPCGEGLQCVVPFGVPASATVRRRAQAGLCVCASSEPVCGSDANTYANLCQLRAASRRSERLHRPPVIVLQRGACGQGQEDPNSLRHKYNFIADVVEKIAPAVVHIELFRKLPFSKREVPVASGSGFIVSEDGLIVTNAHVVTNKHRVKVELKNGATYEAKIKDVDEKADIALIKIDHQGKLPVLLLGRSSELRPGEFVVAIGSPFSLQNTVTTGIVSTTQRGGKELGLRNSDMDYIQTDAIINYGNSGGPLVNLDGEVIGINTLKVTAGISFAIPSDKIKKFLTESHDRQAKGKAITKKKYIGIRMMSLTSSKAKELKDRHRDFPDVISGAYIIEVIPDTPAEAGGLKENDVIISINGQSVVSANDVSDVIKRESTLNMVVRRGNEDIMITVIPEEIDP

B1: Fab94 (anti-HtrA1 antibody YW505.94, Fab format) (Fab, V domains shown)
VH: EVQLVESGGGLVQPGGSLRLSCAASGFNISGYYIHWVRQAPGKGLEWVGWIDPYGGDTNYADSVKGRFTISADTSKNTAYLQMNSLRAEDTAVYYCARGTFLTSWGHYFDYWGQGT
VL: DIQMTQSPSSLSASVGDRVTITCRASQDVSTAVAWYQQKPGKAPKLLIYSASFLYSGVPSRFSGSGSGTDFTLTISSLQPEDFATYYCQQSYTTPPTFGQGTKVEIKR
[1]
  IC50, inhibition of H2-Opt peptide hydrolysis (FRET assay): 29.1 nM
K191A
  EC50: 14 nM
  Relative to WT EC50 Fold Decrease: 2.5 fold
N224A
  EC50: 135 nM
  Relative to WT EC50 Fold Decrease: 24 fold
R227A
  EC50: 25.9 nM
  Relative to WT EC50 Fold Decrease: 4.6 fold
E239A
  EC50: 5.4 nM
  Relative to WT EC50 Fold Decrease: 0.9 fold
K248A
  EC50: 196 nM
  Relative to WT EC50 Fold Decrease: 35 fold
Y325A
  EC50: 7.7 nM
  Relative to WT EC50 Fold Decrease: 1.4 fold
[2]
  EC50: 2.3 nM
  Relative to WT EC50 Fold Decrease: 0.4 fold
HuHtrA1_PD(V201A)
  EC50: 112 nM
  Relative to WT EC50 Fold Decrease: 20 fold
HuHtrA1_PD(H220A)
  EC50: 32 nM
  Relative to WT EC50 Fold Decrease: 5.7 fold
HuHtrA1_PD(K225A)
  EC50: 52.2 nM
  Relative to WT EC50 Fold Decrease: 9.3 fold
